Test results published in the supplement of paper PMC12042874.
± gives the uncertainty stated by the source.

Assay: amyloid nucleation score (Sup35N fusion, yeast selection) (log enrichment); library NNK3; higher = more nucleation; inactive = no reads after selection
Summary of the method: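 Sup35N was fused to peptides of 20 random codons and expressed in psi-negative yeast, which were induced with 100 μM copper sulfate for 24 hours and then grown on medium lacking adenine and uracil for 7 days at 30°C. Plasmid inserts from input and output were sequenced on Illumina. The nucleation score is the DiMSum log enrichment of output over input reads, centred on the mode score of non-aggregating sequences. Sequences with under 100 input reads were left out, and random libraries had three technical output replicates.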

Substance	amyloid nucleation score
YGNGWTFWSFLWGSTNRQRT	inactive
VESCRKDTYNSWFFDCLGDR	inactive
HWKLHALGRWAGQGFTR	inactive
GVFMLVSNFASNWAT	inactive
CRLYEDIGISYMVATNQLEY	inactive
VNTSINVYRYPFRCRSYRMH	0.833 ± 0.085
VWLILRFMWAVVRTNRSNLD	inactive
FTTCMNYIRRLNRKAPNKCR	inactive
SRLIIVPCCLL	0.478 ± 0.28
GVLQLNVIVTYFVMDMCSWL	1.78 ± 0.095
RRLPSELYMSYHYHFFFKSG	inactive
LFSTCSSWTQFLLRPAVSAV	inactive
FVFSRNG	inactive
EMLFPSRICLCIHDVILPRV	inactive
PKYALMRFRFYSGLR	inactive
RMAEVFLLIDCNFFYFDRYM	2.02 ± 0.092
RHQDYLHADGLNMAISITRI	inactive
NCLVVTGRKVPSETHLVFLM	inactive
TRLLWSAEFGEGNDMTSLKF	0.073 ± 0.87
STVELWQELFAFNTRGGSNG	inactive
SMADPRFQESYEDRETYSIS	inactive
HMNDASPGTAKFEIV	inactive
SGRCRSGRQAIRCCILLNVL	inactive

Substance	amyloid nucleation score
WRVLFSILSVTAVWATYAGL	inactive
LNKCLAGFIHMEVWILRMKL	inactive
ISSNVWARDIRNWLNVTGYC	inactive
NYMTVRNGLIISIAPRRLRD	1.83 ± 0.085
ECENMHDTKDLGLTDGVYII	inactive
FENSLFYTKVMDPCSFVWYW	inactive
LCTYVFYPIANSSALSLNKV	inactive
VFDCYHRTGVMETVCWNVFG	inactive
FASSDC	inactive
MAKVLHNWFFDRYRFVMFIG	inactive
LFFHHVKLRH	inactive
VLVSVILYIYYDDCFYSWSF	inactive
LFGTNQYYNY	inactive
CMLSDVIFYIVDDIRMFVGV	inactive
HLMFCNHMALCVFFLQQEF	2.21 ± 0.074
SCVWFSL	inactive
NFGTWDQSVLSLRMKLTCVP	inactive
NQYQSLSRRCSAGALGALVV	inactive
MSDEDRYNRWFDTGVGVLDR	inactive
IALLWQAHLWRHDWKFYFDS	inactive
YELPDWSRYKQFVLLG	inactive
TQFIELS	0.199 ± 0.32
ENYLKVCVASVCPWLLHVRS	-0.079 ± 0.48

Substance	amyloid nucleation score
FDSKVWSAQRVRSTRLLSLG	inactive
TCSVTEMVTL	inactive
MECELHTDGRSVACRHT	inactive
RRSSRSRRHAKRRRAIVRCG	inactive
SKKYFVHFILVNNFGVGY	inactive
RVFIDRDRP	inactive
FDDATEKFIS	inactive
VVMWQRRLRYGPKERNNGKV	-0.067 ± 0.4
YVMHWSVAEVLRSLCVNHVR	inactive
CFAYCFLSLFEMRIWTN	-0.074 ± 0.64
TDFMSFINVERMCVILYPFA	1.36 ± 0.077
RKLSAHLQEGD	inactive
TSTSIVSYGTWFSGFVLNVS	2.29 ± 0.076
MWSIVSGDKVGSSPVLGGCV	inactive
SYRVCMCSTLVVVVSSRGLS	0.823 ± 0.17
CIAMKMWKNIRRWWSGRVAG	inactive
FLHPLSLDSNFLNSVCHFKK	inactive
VRNRSFGTALDNELLNLRPR	inactive
LNSLLY	inactive
QEVAMRAISLSLPARWSVPC	inactive
PVLARYL	inactive
SCILHYSDYATWLGRYVKVI	inactive
EMFYSVCFIYRIMFT	1.25 ± 0.089

Substance	amyloid nucleation score
RISVAGLCASEAVAKCLRRG	inactive
YDKLSYKLPLF	inactive
HRKKYFLSPIVGPRTPRLCT	inactive
YSVCVNAWGLSTLSTLWCTY	inactive
VRGKRTSLWDIKVDYSPDTV	inactive
CVILYLTGKSFIVLSIVVAE	inactive
AMTRCGECGHRMGKASAGMW	inactive
VYLRSISFVRTRQMVWCLLP	inactive
VHVRLQAPFPEAL	inactive
HNQTDSASVIWFSYVWAFVG	inactive
FLFFTEAGYM	inactive
NYNYNRSAHSGCPPGLEGVM	inactive
KCLEGLMVVANDWWVKCFTS	0.671 ± 0.24
FSFTIDAYRHRTTSVLMRMS	inactive
TLRNGQMTIGYCSKGISEVG	inactive
TIMETALDLSMHPMNVH	inactive
NSGLSIVWDWLDCFSGMKYS	inactive
FSIWKV	inactive
FWHENSIAELWICKTLLGKF	inactive
HWVWIGVCLYNDRRGTGICV	1.15 ± 0.16
ARLVAGCVMCHGSLWEMIRE	0.572 ± 0.28
VKTNVCTTYGHY	inactive
ELVVLYLYRRASSGWS	inactive

Substance	amyloid nucleation score
VGLVMNCNKFYVLWFDQIGK	2.27 ± 0.068
LRMVRSYVLSNGCL	inactive
FDAFM	inactive
DGCGFIVTFVSAGVRSWLGI	0.712 ± 0.29
MKQSDLGLKGRCDNCQFGRS	0.092 ± 0.96
RIVDGFLTW	inactive
PVALLTD	inactive
YSNNILFAQEISQPYGHMFP	inactive
VPNSRIVTREGCWESACGIR	inactive
FICERMRRIVESNVDLLGFY	-0.359 ± 0.32
INLPDASS	inactive
HRRIPL	inactive
FKIMD	inactive
MTWNTGLYSRGRHGFYGFST	1.26 ± 0.15
AEWWSTVCH	inactive
HHGWVVYNWVDKVINSHIVG	0.478 ± 0.28
LTTRGRNTRSEDMGEPGLWA	inactive
SVCLSDRSSGS	inactive
VNMISCVYFDMSIERTDEMI	0.801 ± 0.19
CNHVSLTMILVRVLNMFF	0.968 ± 0.23
LQPKLGIT	inactive
CAITAQARV	inactive
YAIVGSRVVRLRSKNRRNLS	inactive

Substance	amyloid nucleation score
AGFSVVSRPLFVRQLPV	inactive
RRHKLW	inactive
KFNSRNRS	inactive
LGGCPSNDGSFYVSSSLLHV	inactive
FILRLVEVSNFCTRYRNAYS	inactive
CQSVLCAKFLVSERH	inactive
LCIGVDLKPCYGSVDRYVNL	inactive
IMYFMLMLGSSRMSFTKLMG	inactive
FYSYRTCDGRIAGIIAGNRA	inactive
LYNILFWTPNFRFVSWYHCI	inactive
YGNLFSYAVMSRDLVSWGPV	inactive
RREGGTPIAHPLLGPGP	-0.076 ± 0.73
RLYVPLLVDVLWEKCKHSNV	inactive
DLIWWRGAQAVNTLNSGSKR	0.115 ± 1
DEFINLSFA	inactive
RYRLKM	inactive
SKVRTVGRLEVSVRIVKTGL	0.085 ± 0.32
MMCPLKLWYHVWFSGYTL	inactive
SPFPLEPFS	inactive
SRNSSIMCFL	inactive
WYGVSACYGWHNVAHSSRSL	1.22 ± 0.18
RTTVVYTLNLSGTNRRPCYN	1.66 ± 0.084
GLLSR	inactive

Substance	amyloid nucleation score
FGQYWKRCTTCLCGWPTGIG	inactive
NRMLNYIFDTTS	inactive
GYSKNI	inactive
DAAQCRSDNYALFELNSAHC	inactive
KFCGEH	inactive
MFCSIIKSQTVAFLVGSSFG	0.145 ± 0.26
HIFFFSPKSVVHVIASRGCL	1.59 ± 0.081
VFSIKIYKPKSSFHDRFYSV	inactive
IKIHYF	inactive
GGKLKRCVYG	inactive
RSCYEVLRHGREL	inactive
YAMCIISIAFPLTL	inactive
VHKYMGEVLHQYFPLMLYLF	0.807 ± 0.1
NSMYYPYQVVRWLVDWHVIR	inactive
TVTHLFGHRVGMSLVFNSTY	inactive
YLKWTNVVKMGHSKSSTE	1.29 ± 0.1
NKLFEDSQAETS	inactive
MFLKMRWSNAVRMARKCNLE	inactive
TYGNENSSLILSCTCYIMLS	2.41 ± 0.082
CLGNENVELVSTNVVYRYIS	inactive
PRYFSRASSKNSRF	inactive
